The source of these data is PMC12019227, “Phase separation of hnRNPA1 and TERRA regulates telomeric stability”.

The term Kd denotes the free concentration of one partner at which half of the binding sites on the other are occupied at equilibrium, for simple one-to-one binding.

Series [1] addresses UP1 Q12A/G147A (human, UniProt P09651 1-196, Q12A;G147A). The experiment in a line: ITC; ITC: 20 mM Tris-HCl pH 7.5, 150 mM NaCl, 20 C; protein 160 uM in syringe, RNA 10 uM in cell. The note with it: protein: recombinant, tags: C-terminal His6, single strand. In general terms: Isothermal titration calorimetry measures the heat released or taken up as one component is titrated into another.

Series [2] concerns the target UP1 wt (human, UniProt P09651 1-196). The description is as above. The settings on record: protein: recombinant, tags: C-terminal His6, chain copies: 2, single strand.
Series [3] deals with UP1 R82A/K113A (human, UniProt P09651 1-196, R82A;K113A). Described as above. The settings on record: protein: recombinant, tags: C-terminal His6, single strand.
Series [4] concerns the target T1, UP1 D42R/R146A (human, UniProt P09651 1-196, D42R;R146A). Described as above. The note with it: protein: recombinant; tags: C-terminal His6; single strand.
Series [5] deals with UP1 K113A (human, UniProt P09651 1-196, K113A). Described as above. The settings on record: protein: recombinant; tags: C-terminal His6; single strand; crystal has 2 antiparallel strands.
Series [6] concerns the target UP1 R82A (human, UniProt P09651 1-196, R82A). The description is as above. The settings on record: protein: recombinant; tags: C-terminal His6; single strand; crystal has 2 antiparallel strands.
Series [7] deals with UP1 V90A/R92A/S95A (human, UniProt P09651 1-196, V90A;R92A;S95A). The series is described as above. The note with it: protein: recombinant; tags: C-terminal His6; single strand; crystal has 2 antiparallel strands.
Series [8] has as its target UP1 D42R (human, UniProt P09651 1-196, D42R). Described as above. The note with it: protein: recombinant; tags: C-terminal His6; single strand; crystal has 2 antiparallel strands.
Series [9] concerns the target UP1 R55A (human, UniProt P09651 1-196, R55A). The description is as above. The settings on record: protein: recombinant; tags: C-terminal His6; single strand; crystal has 2 antiparallel strands.
Series [10] concerns the target UP1 R146A (human, UniProt P09651 1-196, R146A). The description is as above. The note with it: protein: recombinant; tags: C-terminal His6; single strand; crystal has 2 antiparallel strands.
Series [11] has as its target T1, UP1 D42R/R146A. As to the kind of experiment: ITC; text: could not bind RNA at all (conflicts with table); ITC: 20 mM Tris-HCl pH 7.5, 150 mM NaCl, 20 C; protein 160 uM in syringe, RNA 10 uM in cell. The settings on record: protein: recombinant; tags: C-terminal His6; single strand; crystal has 2 antiparallel strands.
Where [12] appears, read: crystal has 2 antiparallel strands.

UP1 Q12A/G147A, sequence (P09651 1-196 Q12A/G147A): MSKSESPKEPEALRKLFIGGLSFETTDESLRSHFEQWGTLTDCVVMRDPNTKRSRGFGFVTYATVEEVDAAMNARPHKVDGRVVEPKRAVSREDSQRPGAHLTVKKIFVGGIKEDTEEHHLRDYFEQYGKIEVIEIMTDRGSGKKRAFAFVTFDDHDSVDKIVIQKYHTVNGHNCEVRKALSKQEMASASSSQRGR
UP1 R82A/K113A, sequence (P09651 1-196 R82A/K113A): as the sequence (P09651 1-196 Q12A/G147A) above, with A12Q, R82A, K113A, A147G counted along it
UP1 wt, sequence (P09651 1-196): as the sequence (P09651 1-196 Q12A/G147A) above, with A12Q, A147G counted along it
T1 sequence (P09651 1-196 D42R/R146A): as the sequence (P09651 1-196 Q12A/G147A) above, with A12Q, D42R, R146A, A147G counted along it
UP1 R146A, sequence (P09651 1-196 R146A): as the sequence (P09651 1-196 Q12A/G147A) above, with A12Q, R146A, A147G counted along it
UP1 V90A/R92A/S95A, sequence (P09651 1-196 V90A/R92A/S95A): as the sequence (P09651 1-196 Q12A/G147A) above, with A12Q, V90A, R92A, S95A, A147G counted along it
UP1 D42R, sequence (P09651 1-196 D42R): as the sequence (P09651 1-196 Q12A/G147A) above, with A12Q, D42R, A147G counted along it
UP1 K113A, sequence (P09651 1-196 K113A): as the sequence (P09651 1-196 Q12A/G147A) above, with A12Q, K113A, A147G counted along it
UP1 R82A, sequence (P09651 1-196 R82A): as the sequence (P09651 1-196 Q12A/G147A) above, with A12Q, R82A, A147G counted along it
UP1 R55A, sequence (P09651 1-196 R55A): as the sequence (P09651 1-196 Q12A/G147A) above, with A12Q, R55A, A147G counted along it

Take TTAGGGTTAGGG (ssDNA) [Telo DNA (TTAGGG)2]: the dissociation constant Kd turned out to be 210 ± 80 nM in [1], 80 ± 20 nM in [2], 100 ± 30 nM in series [3] and 4030 ± 1020 nM in [4].
Regarding UUAGGGUUAGGG (ssRNA) [TERRA (UUAGGG)2], the Kd stood at 300 ± 20 nM in series [5]; 460 ± 70 nM in series [6]; 1410 ± 120 nM in series [7]; 120 ± 20 nM in [1] (setting [12]); 630 ± 120 nM in [8]; 270 ± 20 nM in [2] (setting [12]). Also, the Kd in series [9] stood at 520 ± 40 nM; in series [10], 2120 ± 500 nM; in [3] (setting [12]) it was 770 ± 160 nM; in [11], 2260 ± 310 nM.
